Test results from patent publication US11912789 (INTERK PEPTIDE THERAPEUTICS, dated 2024).
Read-outs that look alike come from different tables or passages of the source. No end group written: not given here. 2Adod = 2-amino-dodecanoic acid; 2Adec = 2-amino-decanoic acid; 12Ado = NCCCCCCCCCCCC(=O)O

Legend:
Assay in all cases: cell-based or functional assay
[1] = target: T1, Lymphocyte-specific protein tyrosine kinase (Lck), enzyme in cell-free kinase assay (human, UniProt P06239 1-509, limits assumed)
T1 sequence (P06239 whole entry): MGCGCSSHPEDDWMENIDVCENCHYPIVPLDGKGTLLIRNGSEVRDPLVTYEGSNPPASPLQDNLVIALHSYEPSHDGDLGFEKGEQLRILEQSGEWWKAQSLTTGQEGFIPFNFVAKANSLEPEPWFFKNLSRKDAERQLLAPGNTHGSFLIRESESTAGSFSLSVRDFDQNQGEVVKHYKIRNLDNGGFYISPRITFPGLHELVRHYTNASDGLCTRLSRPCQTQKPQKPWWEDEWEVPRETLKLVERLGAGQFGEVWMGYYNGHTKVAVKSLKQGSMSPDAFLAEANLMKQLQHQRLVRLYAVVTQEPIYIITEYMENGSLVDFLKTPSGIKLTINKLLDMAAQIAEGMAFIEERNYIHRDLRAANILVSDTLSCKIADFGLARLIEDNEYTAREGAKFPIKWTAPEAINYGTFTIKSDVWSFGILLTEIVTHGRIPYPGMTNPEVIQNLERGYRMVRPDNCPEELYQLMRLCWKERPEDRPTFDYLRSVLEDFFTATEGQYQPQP

[2] = target: T1, Lymphocyte-specific protein tyrosine …; remark: listed apart in the source
[3] = target: T1, Lymphocyte-specific protein tyrosine …; remark: listed apart in the source
Blk = Blk (UniProt P51451 1-505, limits assumed)
Chain of Blk (P51451 whole entry): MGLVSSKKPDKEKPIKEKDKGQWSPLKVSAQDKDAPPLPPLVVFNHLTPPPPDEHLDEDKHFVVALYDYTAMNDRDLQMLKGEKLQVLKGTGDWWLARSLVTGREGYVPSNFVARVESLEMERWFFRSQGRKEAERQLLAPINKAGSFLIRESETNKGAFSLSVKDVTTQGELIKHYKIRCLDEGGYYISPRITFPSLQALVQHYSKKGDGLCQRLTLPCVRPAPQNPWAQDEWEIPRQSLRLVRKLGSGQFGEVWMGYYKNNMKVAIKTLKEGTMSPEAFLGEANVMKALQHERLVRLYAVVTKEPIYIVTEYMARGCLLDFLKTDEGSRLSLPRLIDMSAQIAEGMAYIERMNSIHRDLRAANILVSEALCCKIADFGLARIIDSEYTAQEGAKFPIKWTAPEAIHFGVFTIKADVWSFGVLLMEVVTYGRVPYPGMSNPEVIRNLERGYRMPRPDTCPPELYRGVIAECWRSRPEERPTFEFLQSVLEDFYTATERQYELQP

cSRC = cSRC (UniProt P12931 1-536, limits assumed)
Fgr = Fgr (UniProt P09769 1-529, limits assumed)
Fyn = Fyn (UniProt P06241 1-537, limits assumed)
Chain of Fyn (P06241 whole entry): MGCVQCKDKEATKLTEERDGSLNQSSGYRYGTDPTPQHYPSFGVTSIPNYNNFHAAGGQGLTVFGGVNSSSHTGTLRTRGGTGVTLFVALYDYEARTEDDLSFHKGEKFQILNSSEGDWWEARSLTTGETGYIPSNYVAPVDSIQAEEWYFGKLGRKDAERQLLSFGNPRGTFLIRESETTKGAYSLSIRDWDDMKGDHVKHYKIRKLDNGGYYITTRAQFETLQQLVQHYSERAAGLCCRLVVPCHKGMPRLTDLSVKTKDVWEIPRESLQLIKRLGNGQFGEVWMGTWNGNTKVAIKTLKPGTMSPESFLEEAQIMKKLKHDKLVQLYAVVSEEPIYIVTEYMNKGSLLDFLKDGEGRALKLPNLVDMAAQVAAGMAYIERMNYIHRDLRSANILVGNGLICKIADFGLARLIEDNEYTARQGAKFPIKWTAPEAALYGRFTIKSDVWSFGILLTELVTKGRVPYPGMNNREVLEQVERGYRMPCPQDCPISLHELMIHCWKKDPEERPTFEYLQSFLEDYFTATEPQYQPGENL

Hck = Hck (UniProt P08631 251-518, limits assumed)
Chain of Hck (P08631 251-518 limits assumed): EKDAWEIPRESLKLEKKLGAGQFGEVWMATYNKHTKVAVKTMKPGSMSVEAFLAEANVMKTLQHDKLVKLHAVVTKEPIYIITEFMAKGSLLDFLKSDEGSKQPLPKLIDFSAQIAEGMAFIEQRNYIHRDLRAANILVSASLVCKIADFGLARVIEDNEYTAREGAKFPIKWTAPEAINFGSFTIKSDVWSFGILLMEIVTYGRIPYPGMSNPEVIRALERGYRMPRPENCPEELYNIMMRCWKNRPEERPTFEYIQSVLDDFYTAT

Lyn = Lyn (UniProt P07948 1-512, limits assumed)
Chain of Lyn (P07948 whole entry): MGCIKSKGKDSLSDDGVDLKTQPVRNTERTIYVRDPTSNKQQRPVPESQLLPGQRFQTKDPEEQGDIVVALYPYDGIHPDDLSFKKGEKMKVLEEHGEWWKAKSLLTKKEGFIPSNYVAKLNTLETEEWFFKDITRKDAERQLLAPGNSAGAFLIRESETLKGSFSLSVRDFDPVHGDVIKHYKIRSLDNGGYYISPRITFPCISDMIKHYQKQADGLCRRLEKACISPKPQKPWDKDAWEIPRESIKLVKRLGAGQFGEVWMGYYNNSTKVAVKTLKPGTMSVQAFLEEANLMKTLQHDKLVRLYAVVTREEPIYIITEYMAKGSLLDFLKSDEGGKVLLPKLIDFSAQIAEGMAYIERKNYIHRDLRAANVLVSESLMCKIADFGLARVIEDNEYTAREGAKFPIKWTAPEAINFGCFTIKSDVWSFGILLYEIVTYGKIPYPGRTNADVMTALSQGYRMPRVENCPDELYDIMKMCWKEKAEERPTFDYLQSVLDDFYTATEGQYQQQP

Yes = Yes (UniProt P07947 1-543, limits assumed)
Chain of Yes (P07947 whole entry): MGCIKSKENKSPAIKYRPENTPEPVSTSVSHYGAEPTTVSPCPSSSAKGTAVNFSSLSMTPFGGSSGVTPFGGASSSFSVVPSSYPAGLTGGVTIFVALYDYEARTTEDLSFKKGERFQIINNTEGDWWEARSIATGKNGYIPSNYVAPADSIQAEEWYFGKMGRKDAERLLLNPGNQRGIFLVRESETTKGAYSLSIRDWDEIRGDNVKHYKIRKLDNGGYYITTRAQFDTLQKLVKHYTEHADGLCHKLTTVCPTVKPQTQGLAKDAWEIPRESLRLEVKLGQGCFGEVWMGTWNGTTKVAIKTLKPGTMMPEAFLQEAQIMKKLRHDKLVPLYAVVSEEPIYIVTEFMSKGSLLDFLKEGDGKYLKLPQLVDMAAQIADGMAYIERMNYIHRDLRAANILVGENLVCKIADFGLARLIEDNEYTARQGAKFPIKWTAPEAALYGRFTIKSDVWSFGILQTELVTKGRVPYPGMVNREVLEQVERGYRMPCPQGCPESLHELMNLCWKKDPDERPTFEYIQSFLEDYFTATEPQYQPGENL

[4] = target: T1, Lymphocyte-specific protein tyrosine …; remark: listed apart in the source

## RSKAANPLY
[1]
  Lck Activation above control, 1 µM: 0%
  Lck Activation above control, 10 µM: 0%
  Lck Activation above control, 30 µM: 0%

## RSKAKNPLYR-{2Adod-2Adod-2Adod-2Adod-NH2} [RSKAKNPLYR-(2Adod)4-NH2]
[2]
  Lck Activation above control, 1 µM: 499%

## RSAAKNPLY
[1]
  Lck Activation above control, 1 µM: 0%
  Lck Activation above control, 10 µM: 0%
  Lck Activation above control, 30 µM: 0%

## ASKAKNPLY
[1]
  Lck Activation above control, 1 µM: 0%
  Lck Activation above control, 10 µM: 0%
  Lck Activation above control, 30 µM: 0%

## RVKVKVVVV
[1]
  Lck Activation above control, 1 µM: 518%
  Lck Activation above control, 10 µM: 501%
  Lck Activation above control, 30 µM: 363%

## RSRARNPLY
[1]
  Lck Activation above control, 1 µM: 0%
  Lck Activation above control, 10 µM: 0%
  Lck Activation above control, 30 µM: 0%

## KEKLKNPLF
[1]
  Lck Activation above control, 1 µM: 0%
  Lck Activation above control, 10 µM: 0%
  Lck Activation above control, 30 µM: 14%

## RSKAKNPLYR
[3]
  Lck activity relative to control, peptide at 10 µM: 0%
Blk
  Blk activity relative to control, peptide at 10 µM: 0%
cSRC
  cSRC activity relative to control, peptide at 10 µM: 0%
Fgr
  Fgr activity relative to control, peptide at 10 µM: 0%
Fyn
  Fyn activity relative to control, peptide at 10 µM: 0%
Hck
  Hck activity relative to control, peptide at 10 µM: 0%
Lyn
  Lyn activity relative to control, peptide at 10 µM: 0%
Yes
  Yes activity relative to control, peptide at 10 µM: 0%
[1]
  Lck Activation above control, 1 µM: 0%
  Lck Activation above control, 10 µM: 0%
  Lck Activation above control, 30 µM: 0%

## SKAKNPLYR
[1]
  Lck Activation above control, 1 µM: 0%
  Lck Activation above control, 10 µM: 0%
  Lck Activation above control, 30 µM: 0%

## RSKAKNPLYR-{2Adec-2Adec-2Adec-2Adec-NH2} [RSKAKNPLYR-(2-Adec)4-NH2]
[2]
  Lck Activation above control, 1 µM: 127%

## RYLPNKAKS
[1]
  Lck Activation above control, 1 µM: 0%
  Lck Activation above control, 10 µM: 0%
  Lck Activation above control, 30 µM: 5%

## RSKAKNPLYR-{2Adod-2Adod-2Adod-2Adod-OH} [RSKAKNPLYR-(2Adod)4-OH]
[4]
  level of Lck activation relative to the amidated compound …-(2Adod)4-NH2: ~50%

## RSKAKNPLYR-{12Ado-12Ado-12Ado-12Ado-NH2} [RSKAKNPLYR-(12-Adod)4-NH2]
[2]
  Lck Activation above control, 1 µM: 96%

## RVKVKVVVVR
[1]
  Lck Activation above control, 1 µM: 13%
  Lck Activation above control, 10 µM: 183%

## RSKAKNPLY
[3]
  Lck activity relative to control, peptide at 10 µM: 186%
Blk
  Blk activity relative to control, peptide at 10 µM: 0%
cSRC
  cSRC activity relative to control, peptide at 10 µM: 0%
Fgr
  Fgr activity relative to control, peptide at 10 µM: 0%
Fyn
  Fyn activity relative to control, peptide at 10 µM: 0%
Hck
  Hck activity relative to control, peptide at 10 µM: 0%
Lyn
  Lyn activity relative to control, peptide at 10 µM: 0%
Yes
  Yes activity relative to control, peptide at 10 µM: 0%
[1]
  Lck Activation above control, 1 µM: 0%
  Lck Activation above control, 10 µM: 186%
  Lck Activation above control, 30 µM: 407%

## DSEAENPLYD-{2Adod-2Adod-2Adod-2Adod-NH2} [DSEAENPLYD-(2Adod)4-NH2]
[2]
  Lck Activation above control, 1 µM: 0%
